Measured values: patent US20200172896, “EVOLUTION OF BIOACTIVE SEQUENCE-DEFINED SYNTHETIC POLYMERS USING DNA-TEMPLATED POLYMERIZATION” (President and Fellows of Harvard College, published 2020)

How the values were obtained:
PCSK9 [1] = molecular target: T1, PCSK9 (Homo sapiens, UniProt Q8NBP7;Q8NBP7 Q8NBP7:31-152,Q8NBP7:153-692); experiment: pulldown; unfunctionalized DNA, no evident binding; conditions: tags: ACROBiosystems PC9-H5223
PCSK9 [2] = molecular target: T1, PCSK9; experiment: SPR; 0.9x HBS-EP, salmon sperm DNA 1 mg/ml, 25 C; conditions: tags: ACROBiosystems PC9-H5223; label: 5' dual biotin-iSp18
Procedure: (§1) All SPR assays were performed at 25° C. on a Biacore X100 or Biacore T200 (GE Healthcare Life Sciences). Binding kinetics between enzymatically synthesized biotinylated HFNAPs and unlabeled recombinant proteins were measured using single-cycle kinetics with the Biotin CAPture kit (GE Life Sciences) using 0.9×HBS-EP buffer (GE Life Sciences) at a flow rate of 30 μL/min. The injected PCSK9 concentration ranged from 10 to 300 nM for PCSK9-A5 and its variants, or from 2 to 60 nM for PCSK9-Evo5 and its variants. The injected IL-6 concentration ranged from 10 to 300 nM.
(§2) All SPR assays were performed at 25° C. on a Biacore X100 or Biacore T200 (GE Healthcare Life Sciences). […] HBS-EP buffer (GE Life Sciences, BR100188), diluted by MilliQ water to 0.9×, was used as the bulk running buffer. Each experiment consisted of three start-up cycles followed by multiple data collection and blank cycles. […] Afterwards, four ascending concentrations of PCSK9 protein [10, 30, 100, 300 nM protein supplemented with 1 mg/ml salmon sperm DNA (Invitrogen, 15632-011) as nonspecific binding reducer for PCSK9-A5 and its variants; 2, 6, 20, 60 nM protein without salmon sperm DNA for PCSK9-Evo5 and its variants] in 0.9×HBS-EP were injected onto both flow cells in series at 30 μL/min for 150 seconds each, followed by 240 seconds of dissociation. […]

[3] = molecular target: PCSK9 mature, lacking prodomain (Homo sapiens, UniProt Q8NBP7 Q8NBP7:153-692); experiment: SPR; no apparent binding, 2-60 nM protein; conditions: tags: ACROBiosystems PC9-H5226; label: 3' iSp18-dual biotin
Sequence of PCSK9 mature, lacking prodomain (Q8NBP7 153-692, one chain of several): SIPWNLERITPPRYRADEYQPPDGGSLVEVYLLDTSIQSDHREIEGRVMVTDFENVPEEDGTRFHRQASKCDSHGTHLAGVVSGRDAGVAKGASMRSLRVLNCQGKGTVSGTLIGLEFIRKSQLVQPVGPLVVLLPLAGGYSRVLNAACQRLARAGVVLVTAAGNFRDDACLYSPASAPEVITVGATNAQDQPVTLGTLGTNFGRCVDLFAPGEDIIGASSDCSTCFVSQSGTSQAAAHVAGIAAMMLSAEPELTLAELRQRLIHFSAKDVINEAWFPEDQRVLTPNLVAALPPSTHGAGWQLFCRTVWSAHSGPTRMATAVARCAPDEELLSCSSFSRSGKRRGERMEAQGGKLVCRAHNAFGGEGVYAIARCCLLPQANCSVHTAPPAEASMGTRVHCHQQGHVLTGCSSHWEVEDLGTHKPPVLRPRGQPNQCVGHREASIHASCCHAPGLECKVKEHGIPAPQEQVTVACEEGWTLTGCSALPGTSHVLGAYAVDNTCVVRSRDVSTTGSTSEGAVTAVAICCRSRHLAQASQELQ
Procedure: All SPR assays were performed at 25° C. on a Biacore X100 or Biacore T200 (GE Healthcare Life Sciences). […] HBS-EP buffer (GE Life Sciences, BR100188), diluted by MilliQ water to 0.9×, was used as the bulk running buffer. Each experiment consisted of three start-up cycles followed by multiple data collection and blank cycles. […] Afterwards, four ascending concentrations of PCSK9 protein [10, 30, 100, 300 nM protein supplemented with 1 mg/ml salmon sperm DNA (Invitrogen, 15632-011) as nonspecific binding reducer for PCSK9-A5 and its variants; 2, 6, 20, 60 nM protein without salmon sperm DNA for PCSK9-Evo5 and its variants] in 0.9×HBS-EP were injected onto both flow cells in series at 30 μL/min for 150 seconds each, followed by 240 seconds of dissociation. Both flow cells were then regenerated with a 3:1 mixture of 8 M guanidinium chloride and 1 M NaOH following manufacturer's instructions. Blank cycles were run similarly except that 0.9×HBS-EP (containing 1 mg/ml salmon sperm DNA when PCSK9-A5 and its variants were assayed) without PCSK9 protein was injected.

PCSK9 [4] = molecular target: T1, PCSK9; experiment: SPR; 0.9x HBS-EP, 25 C, immobilized HFNAP; conditions: tags: ACROBiosystems PC9-H5223; label: 3' iSp18-dual biotin
Procedure: as §1, §2

PCSK9 [5] = molecular target: T1, PCSK9; experiment: SPR; two-state reaction kinetic model; conditions: tags: ACROBiosystems PC9-H5223; label: 3' iSp18-dual biotin
Procedure: as §1, §2

PCSK9 [6] = molecular target: T1, PCSK9; experiment: inhibition; inhibition of 20 nM PCSK9 binding to immobilized LDLR by SPR; HEPES, NaCl, 0.1 mM CaCl2, pH 7.5; conditions: tags: ACROBiosystems PC9-H5223
Procedure: Binding of PCSK9 on surface-immobilized LDLR in the presence of various competing agents was measured on a Series S SA chip using 10 mM HEPES, 150 mM NaCl, 0.1 mM CaCl₂, 0.005% Tween-20, pH 7.5 as bulk buffer at a flow rate of 10 μL/min. The injected solutions contained 20 nM PCSK9 and various competing agents ranging from 2 to 200 nM.
Binding of PCSK9 on surface-immobilized LDLR in the presence of various competing agents was measured on a Series S SA chip. The bulk running buffer was 10 mM HEPES, 150 mM NaCl, 0.1 mM CaCl₂, 0.005% Tween-20, pH 7.5. […] The surface was regenerated using two consecutive one-minute injections of 50 mM HCl. Blank cycles were run similarly except that running buffer containing 1 mg/ml non-specific binding reducer without protein was injected. Response levels at the end of the injection periods from double-blank-subtracted sensograms were recorded.

[7] = molecular target: PCSK9 (biotinylated Avi-tagged) (UniProt Q8NBP7;Q8NBP7 Q8NBP7:31-152,Q8NBP7:153-692); experiment: SPR; immobilized PCSK9, 0.9x HBS-EP, 25 C; conditions: tags: biotinylated Avi-tag, ACROBiosystems PC9-H82E7
Sequence of PCSK9 (biotinylated Avi-tagged) (Q8NBP7 31-152, chain 1 of 2): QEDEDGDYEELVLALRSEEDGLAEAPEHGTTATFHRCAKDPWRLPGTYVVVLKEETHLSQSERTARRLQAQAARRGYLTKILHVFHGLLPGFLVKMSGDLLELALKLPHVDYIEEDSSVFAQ
Sequence of PCSK9 (biotinylated Avi-tagged) (Q8NBP7 153-692, chain 2 of 2): as the sequence (Q8NBP7 153-692, one chain of several) above
From the text: Biotinylated PCSK9 in 0.9×HBS buffer was immobilized onto the active flow cell to ˜1000 RU. […] Kinetic parameters were fitted to double-blank-subtracted sensograms under a 1:1 binding model using BIAEvaluation software.

PCSK9 [8] = molecular target: T1, PCSK9; experiment: SPR; 0.9x HBS-EP, 25 C; conditions: tags: ACROBiosystems PC9-H5223; label: biotin
Procedure: as §1, §2

T1 sequence (Q8NBP7 31-152, chain 1 of 2): as the sequence (Q8NBP7 31-152, chain 1 of 2) above
T1 sequence (Q8NBP7 153-692, chain 2 of 2): as the sequence (Q8NBP7 153-692, one chain of several) above

B1: PCSK9A3-DNA (ssDNA)
DNA: CGAATCAGATTGGACCAGTCTCTACAACCTCTTTCATGTCTTTAGCACTACTTATCCTGATCAGAGTCCAGATGTAGGTAG
B1: no binding (PCSK9 [1]).

B2: PCSK9A7-DNA (ssDNA)
DNA: CGAATCAGATTGGACCAGTCTTCCCTATTCCTCTACCGTTTGTTCTCTTACTTTCACCTTCTGGAGTCCAGATGTAGGTAG
B2: no binding (PCSK9 [1]).

B3: PCSK9A2-DNA (ssDNA)
DNA: CGAATCAGATTGGACCAGCAACAATGATTCTTCTACCGTTTTTGCCCTCACCTTCTGCGCTGAGAGTCCAGATGTAGGTAG
B3: no binding (PCSK9 [1]).

B4: PCSK9-A5 (ssDNA)
DNA: CGAATCAGATTGGACCAGCCACGTTACTGATTCTTCTACCGTTTTTGCCCCCGGCACCTTCTGGAGTCCAGATGTAGGTAG
modifications: HFNAP, C5 side chain on the 5' pyrimidine of each of the 15 codons in the variable region (19-63): CCA cyclopropyl, CGT/CTT/CTG cyclopentyl, TAC imidazole, TGA/TGC primary alcohol, TTC allylamine, TTT phenol, CCC cyclopropyl, CGG/CAC isopentyl
Binder B4 has a Kd (PCSK9 [2]) of 98 nM.

B5: PCSK9A6-DNA (ssDNA)
DNA: CGAATCAGATTGGACCAGTTTCAACCTCTTCTGCCTTCTCCACGGCTCCTTCTGCGTTGTTCCGAGTCCAGATGTAGGTAG
B5: no binding (PCSK9 [1]).

B6: PCSK9A1-DNA (ssDNA)
DNA: CGAATCAGATTGGACCAGCCACTATATTCTCTCTCCTACCGTTTGCCTTTGCATCACCTTCTGGAGTCCAGATGTAGGTAG
B6: no binding (PCSK9 [1]).

B7: PCSK9-Evo5 (ssDNA)
DNA: TGCTACCGTTGTTTACCCTGCCACCTTCTGGAGTCCAGATGTAGGTAG
modifications: HFNAP, C5 side chain on 5' pyrimidine of codons TGC primary alcohol, TAC imidazole, CGT cyclopentyl, TGT phenol, TTA allylamine, CCC cyclopropyl, TGC primary alcohol, CAC isopentyl, CTT cyclopentyl, CTG cyclopentyl
B7 was tested, and the binding result [3] was “no binding” and the Kd (PCSK9 [4]) was 3 nM.

B8: PCSK9-Evo5 CAC delta side chain (ssDNA)
DNA: TGCTACCGTTGTTTACCCTGCCACCTTCTGGAGTCCAGATGTAGGTAG
modifications: as PCSK9-Evo5 except CAC unmodified [side chains as PCSK9-Evo5 except CAC codon (nt 22-24) unmodified (isopentyl removed); base sequence unchanged]
B8 showed a Kd (PCSK9 [5]) of roughly 420 nM.

In the case of TGCTACCGTTGTTTACCCTGCCACCTTCTGGAGTCCAGATGTAGGTAG (ssDNA, side chains as PCSK9-Evo5, 3' idT) [PCSK9-Evo5-syn], the IC50 (PCSK9 [6]) is reported as roughly 9 nM and the Kd [7] is reported as 6.8 nM.

In the case of TTCTACCGTTTTTGCCCCCGGCACCTTCTGGAGTCCAGATGTAGGTAG (ssDNA, HFNAP side chains as PCSK9-A5) [PCSK9-A5Trunc], the Kd (PCSK9 [8]) is reported as 68 nM.

B9: PCSK9-Evo5 3 side chains (ssDNA)
DNA: TGCTACCGTTGTTTACCCTGCCACCTTCTGGAGTCCAGATGTAGGTAG
modifications: only three side chains: phenol at position 9, isopentyl at position 21, cyclopentyl at position 24 (so in the source); rest unfunctionalized DNA [phenol at 9, isopentyl at 21, cyclopentyl at 24 (positions as printed); all other side chains removed; base sequence unchanged]
B9 gave a Kd (PCSK9 [8]) of 3.7 nM.

B10: PCSK9A4-DNA (ssDNA)
DNA: CGAATCAGATTGGACCAGCCCCAATGCTTTTCGTTTCTATCACGTCTTTAGCGGTACCTATTCGAGTCCAGATGTAGGTAG
B10: no binding (PCSK9 [1]).
